Source: the DeepSol protein solubility set

Assay: soluble on expression in E. coli; label from the status in PepcDB or PDB records

Sequence	soluble on expression in E. coli
KLDKAYLNNDADKITYMPTWRPWEESEIINGNIKKTTYYKSILDVIKAFEKENMLNRLQIAAHNKFSQYMKNNFDKYQNIFIEDPTDTLTNSIIYITDISSIILDAAYRGAYPIFYWKEFDYIIEKHGGTSPVNPENAPGDVVYSEQDLVNIVKYIIRNDYKIPSRIKENYKKLNEFNDNQNTQRVVDILIEDNII	not soluble
KLEFREVDKDALVNDEKLLREFFGIYVLAHYRNRPSDLAILLDMPNHLPFIVTVNGKPVCSLHIAVEGNLDDETIEKIKEGYKPKGQIIPDLMLKHYWDFEFPKLVGARVVRIATHPSVMDMGIGSFALAKIVEWAYGRDMDWVGSGFGVSPELLRFWAKNHFTPVHITPQRNE	not soluble
KMPLTIYSADGEVIGMYGEQRREFTKIGDFPEVLRNAVIAAEDKRFYRHWGVDVWGVARAAVGNVVSGSVQSGASTITQQVAKNFYLSSEKTFTRKFNEVLLAYKIEQSLSKDKILELYFNQIYLGQRAYGFASAAQIYFNKNVRDLTLAEAAMLAGLPKAPSAY	not soluble
KMPVTAGLTVEKKINKHLAVETGLLYSNLRAEQNLHYLGIPVKLNVTLAETPKFDLYASVGGVADKCIAGAPDNSFKNEPVQLALTAGVGMNYKINDKLALFAEPG	not soluble
KNKTIEVYVDRATLPTIQQMTQIINENSNNKKLISWSRYPINDETLLESINGSFFKNRPELIKSLDSMILTNEIKKVIINGNTLWAVDVVNIIKSIEALGKKTEIELNFYDDGSAEYVRLYDFSRLPESEQEYKISLSKDNIQSSINGTQPFDNSIENIYGFSQLYPTTYHMLRADIFETNLPLTSLKRVISNNIKQMKWDYFTTFNSQQKNKFYNFTGFNPEKIKEQYKASPHENFIFIGTNSGTATAEQQIDILTEAKKPDSPIITNSIQGLDLFFKGHPSATYNQQIIDAHNMIEIYNKIPFEALIMTDALPDAVGGMGSSVFFSLPNTVENKFIFYKSDTDIENNALIQVMIELNIVNRNDVKLISDLQ	soluble
KNTPVDAIPDLSDVQVIIKTSYPGQAPQVVEDQVTYPLTTAMLAVPGAETVRGYSFFGDSYVYIIFNDDTDMYWARSRVLEYLSQVAPKLPPNAKPTLGPDATGVGWVYSYVLQDKTGQHDLAELRSLQDWFLKYELQTVDGVSEVATVGGMVKQYQVQIDPAKLRAYNLTLQQVNMAIQNGNQETGASVVEVAEAEHMVRTTGYLTSIEDIKSLPLKVTDKGTPLLLGDIADINLGPQMRRGISELNGEGEAVGGVIVMRYGENASEVISKVKDKLEDLQRSLPDGVEIVTTYDRSTLINAAVDNLWKKLAEEFIVVAIVCALFLFHIRSS	not soluble
KPGARIGVGMEYQFNDMISLQPSLFFSQKGAKYSSGFDGNIIDADADVKINQLYLELPVNVQFRFNIADNTNLVIATGPYLACGVGGKAKFDGDASVGGIHINGDDKIDTFGDDGLDYNRFDAGWNIGLGVEFGKILVGLDTQLGFCKVMDGDAPHNANIGITLGYKF	not soluble
KQPKKSQPDLFYATDGTPILVGKNNLQNDQLTLRTAKKTDYWLHAKDIPGSHVIIRDAHPSEETLTEAALLAAYFSKYRLSSQVPVDYVQVKHVHK	not soluble
KQVYAFDIQKQALEKTQERLHQADLTNAQLILQGHETLDQFVIKAKAGIFNLGYLPAADKSVITRPQTTIEALEKLCGLLVKGGRIAIMIYYGHEGGDLERDAVLDFVIQLNQQEYTAAIYRTLNQVNNPPFLVMIEKLERYRH	not soluble
KRAPDGRVLDIAGTEHSLHDLTRGKISLVSFVYLTCGDVNGCPLAMSVFFDVHDASGDLPGLNEDVQLLTISFDPARDTVEAIEAFAYPITSDEQAGDKLNWQVLTTSGPQELRPILDGYGQVVDRSEDQETISHLLRLFLVDRQGDIRNVYGLGFLDPRLLLTDIETLLMEEAGA	soluble
KRATQFTASILSLYNSEQMLQKTDPMSVISSAMVAATLDLPIDKNLGYAWIVPYGGKAQFQLGYKGYIQLALRTGQYKSINCIPIHEGELQKWNPLTEEIEIDFEKRESDAVIGYAAYFELINGFRKTVYWTKAQVEKHKKKFSKSDFGWKNDWDAMALKTVLKAVLSKWGILSVEMQKAVIEEDETRERIDITNEADSSEIIDSE	soluble
KRRFELRGIVNNISVYDDFAHHPTAIAKTLAGVRAKLSQQESEQEQVGRIFAVLEPRSNTMRSGVHKESLPKSLIDADQVFIYQGEQVTWSVSDLIKQCKPACQVEDNVERLVESIAQQAQAGDIIVVMSNGGFADIHNKLLNRLANIPVPLEDA	not soluble
KRTMSISWPLAFSGAFQGSLTGMDNLRFICRIYNVDIDYVKAFTEEFSELGQYLYEPVKRYSSGMKARLAFALSLAVEFDCYLIDEVIAVGDSRFADKCKYELFEKRKDRSIILVSHSHSAMKQYCDNAMVLEKGHMYQFEDMDKAYEYYNSLP	not soluble
KSAKEMLEYCNSTGLSLSGMVMQNELALHSKKEIEEYFGHVWQTMQACIDRGMNTEGVLPGPLRVPRRASALRRMLVSSDKLSSDPMNVIDWVNMFALAVNEENAAGGRVVTAPTNGACGIVPAVLAYYDHFIESVSPDIYTRYFLAAGAIGALYKMNASISGAEVGCQGEVGVACSMAAAGLAELLGASPEQVCVAAEIGMEHNLGLTCDPVAGQVQVPCIERNAIASVKAINAARMAMRRTSAPRVSLDKVIETMYETGKDMNAKYRETSRGGLAIK	not soluble
KSEHETRLEAKLFEDYSSVVRPVEDHREIVQVTVGLQLIQLINVDEVNQIVTTNVRLKQQWVDYNLKWNPDDYGGVKKIHIPSEKIWRPDVVLYNNADGDFAIVKFTKVLLDYTGHITWTPPAIFKSYCEIIVTHFPFDEQNCSMKLGTRTYDGSAVAINPESDQPDLSNFMESGEWVIKEARGWKHWVFYSCCPTTPYLDITYHFVMQRLP	soluble
KVLTIKSCNIHSGIGIRPHAQIELEYQGKIHKEISEGDGGYDAFMNALTKITNRLGISIPKLIDYEVRIPPGGKTDALVETRITWNKSLDLEEDQTFKTMGVHPDQTVAAVHATEKMLNQILQPWQI	soluble
KVTKLINDDPTLTHDQKVDQINKVEQAKLDAIKSVDDAQTADAINDALGKGIENINNQYQHGDGVDVRKATAKGDL	not soluble
KVWKPGDECFALYWEDNKFYRAEVEALHSSGMTAVVKFTDYGNYEEVLLSNIKPVQTEAWVRDPN	soluble
KWFRIDHVQEAHDAGVAVEDLFTRQIKVNHVVTGSDLVIDIHHTLGLEIIVSRIERDGQQTLPTASSRIHMGDVLSVVGTAEELDKAAHVLGDLLPGDPFHGHDLDYRRIFVSNQDLVGIPLAKLRPRLSGILITRVRRGDHDHVATPETVLQLGDRVRVVAAHDRMKSVTALFGDSYRRLSD	not soluble
KYIMHQTTPNYTVTLLAALLPWQFFQGAVQGSTTSIISNSNLIKKIYFPRQIMPLSI	not soluble
LAIPEKRLSNNIILTKLKIALNLQAEQIISLLESVDFRISKPELSAFSRKVDHQHYRECKDQVLRNLLHAIDKTYHV	not soluble
LDFGALPPEINSGRMYCGPGSGPMLAAAAAWDGVAVELGLAATGYASVIAELTGAPWVGAASLSMVAAATPYVAWLSQAAARAEQAGMQAAAAAAAYEAAFVMTVPPPVITANRVLVMTLIATNFFGQNSAAIAVAEAQYAEMWAQDAVAMYGYAAASASASRLIPFAAPPKTTNSAGVVAQVAAVAAMPGLLQRLSSAASVSWSNPNDWWLVRLLGSITPTERTTIVRLLGQSYFATGMAQFFASIAQQLTFGPGGTTAGSGGAWYPTPQFAGLGASRAVSASLARANKIGALSVPPSWVKTTALTESPVAHAVSANPTVGSSHGPHGLLRGLPLGSRITRRSGAFAHRYGFRHSVVARPPSAG	not soluble
LDKRWLQICEDASTLCADRVKEVLEGHGFTGLHVAAAVADTMAVGDTLFLGASNPVRDASLVGMPLGGVDIFAARGAAGIDGTVSQAVGVALDVQHRDATAIRADRTVALMGDVTFLHDVGGLLGARPENLTIVVANDDGCGIFETLEIGAPEFRPSFEQAFGTPHGVHIEAIAQAYGVNYLRAETLPELIEALIDTTDSAGFNIIEAVTTRSTRRDIDKALTL	not soluble
LDVAKSLDQGLVDRMLQSNTGTDSCPKRLPKGIDSVTLDKIRDLFVGEAALTADEAGEKIGASRTTARRYLEYLISSGELEADLNYGTVGRPERCYKKVIR	not soluble
